From US20190135934A1 (published 2019)

T1: CD20 protein on CD20 protein-positive lymphoma cell Raji (ATCC CCL-86) (UniProt P11836 1-297, limits assumed)
T1 construct: whole, on cells; The target is native CD20 on Raji cells; also called CD20 antigen
T1 sequence (looked up): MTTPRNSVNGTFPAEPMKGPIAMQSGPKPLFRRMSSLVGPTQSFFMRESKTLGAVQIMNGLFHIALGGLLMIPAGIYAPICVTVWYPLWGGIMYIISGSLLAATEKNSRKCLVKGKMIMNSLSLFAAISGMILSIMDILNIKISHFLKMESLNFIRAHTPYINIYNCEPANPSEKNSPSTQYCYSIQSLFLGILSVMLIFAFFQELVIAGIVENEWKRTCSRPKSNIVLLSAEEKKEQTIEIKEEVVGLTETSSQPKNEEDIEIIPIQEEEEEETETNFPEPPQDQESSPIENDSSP


Biological target: T1, CD20 protein on CD20 protein-positive …
Test: flow cytometry, fluorescently labeled antibody on Raji cells
Protocol: Briefly, after diluted in equal concentration proportions, the purified fluorescently labeled antibody was incubated with the CD20 protein-positive lymphoma cell Raji (ATCC CCL-86) for 45 minutes on ice, and then washed twice and subjected to flow cytometry. The binding activity of the antibody was further evaluated based on the change in fluorescence intensity of the antibody after binding to the cells at different antibody concentrations.

| Binder | binding result |
| --- | --- |
| novel CD20 antibody H102YH (antibody, human IgG1, V domains shown) VH: QVQLQQPGAELVKPGASVKMSCKASGYTFTSYNMHWVKQTPGRGLEWIGAIYPGNGDTSYNQKFKGKATLTADKSSSTAYMQLSSLTSEDSAVYYCARSTYHGGDWYFNVWGAGTTVTVSA VL: QIVLSQSPAILSASPGEKVTMTCRASSSVSYIHWFQQKPGSSPKPWIYATSNLASGVPVRFSGSGSGTSYSLTISRVEAEDAATYYCQQWTSNPPTFGGGTKLEIKV | binds |
| novel CD20 antibody H102YN (antibody, human IgG1, V domains shown) VH: QVQLQQPGAELVKPGASVKMSCKASGYTFTSYNMHWVKQTPGRGLEWIGAIYPGNGDTSYNQKFKGKATLTADKSSSTAYMQLSSLTSEDSAVYYCARSTYNGGDWYFNVWGAGTTVTVSA VL: QIVLSQSPAILSASPGEKVTMTCRASSSVSYIHWFQQKPGSSPKPWIYATSNLASGVPVRFSGSGSGTSYSLTISRVEAEDAATYYCQQWTSNPPTFGGGTKLEIKV | binds |
| novel CD20 antibody H102YM (antibody, human IgG1, V domains shown) VH: QVQLQQPGAELVKPGASVKMSCKASGYTFTSYNMHWVKQTPGRGLEWIGAIYPGNGDTSYNQKFKGKATLTADKSSSTAYMQLSSLTSEDSAVYYCARSTYMGGDWYFNVWGAGTTVTVSA VL: QIVLSQSPAILSASPGEKVTMTCRASSSVSYIHWFQQKPGSSPKPWIYATSNLASGVPVRFSGSGSGTSYSLTISRVEAEDAATYYCQQWTSNPPTFGGGTKLEIKV | binds |
| novel CD20 antibody H102YV (antibody, human IgG1, V domains shown) VH: QVQLQQPGAELVKPGASVKMSCKASGYTFTSYNMHWVKQTPGRGLEWIGAIYPGNGDTSYNQKFKGKATLTADKSSSTAYMQLSSLTSEDSAVYYCARSTYVGGDWYFNVWGAGTTVTVSA VL: QIVLSQSPAILSASPGEKVTMTCRASSSVSYIHWFQQKPGSSPKPWIYATSNLASGVPVRFSGSGSGTSYSLTISRVEAEDAATYYCQQWTSNPPTFGGGTKLEIKV | binds |
| novel CD20 antibody H102YS (antibody, human IgG1, V domains shown) VH: QVQLQQPGAELVKPGASVKMSCKASGYTFTSYNMHWVKQTPGRGLEWIGAIYPGNGDTSYNQKFKGKATLTADKSSSTAYMQLSSLTSEDSAVYYCARSTYSGGDWYFNVWGAGTTVTVSA VL: QIVLSQSPAILSASPGEKVTMTCRASSSVSYIHWFQQKPGSSPKPWIYATSNLASGVPVRFSGSGSGTSYSLTISRVEAEDAATYYCQQWTSNPPTFGGGTKLEIKV | binds |
| novel CD20 antibody H102YR (antibody, human IgG1, V domains shown) VH: QVQLQQPGAELVKPGASVKMSCKASGYTFTSYNMHWVKQTPGRGLEWIGAIYPGNGDTSYNQKFKGKATLTADKSSSTAYMQLSSLTSEDSAVYYCARSTYRGGDWYFNVWGAGTTVTVSA VL: QIVLSQSPAILSASPGEKVTMTCRASSSVSYIHWFQQKPGSSPKPWIYATSNLASGVPVRFSGSGSGTSYSLTISRVEAEDAATYYCQQWTSNPPTFGGGTKLEIKV | binds |
| novel CD20 antibody H102YL (antibody, human IgG1, V domains shown) VH: QVQLQQPGAELVKPGASVKMSCKASGYTFTSYNMHWVKQTPGRGLEWIGAIYPGNGDTSYNQKFKGKATLTADKSSSTAYMQLSSLTSEDSAVYYCARSTYLGGDWYFNVWGAGTTVTVSA VL: QIVLSQSPAILSASPGEKVTMTCRASSSVSYIHWFQQKPGSSPKPWIYATSNLASGVPVRFSGSGSGTSYSLTISRVEAEDAATYYCQQWTSNPPTFGGGTKLEIKV | binds |
| novel CD20 antibody H102YQ (antibody, human IgG1, V domains shown) VH: QVQLQQPGAELVKPGASVKMSCKASGYTFTSYNMHWVKQTPGRGLEWIGAIYPGNGDTSYNQKFKGKATLTADKSSSTAYMQLSSLTSEDSAVYYCARSTYQGGDWYFNVWGAGTTVTVSA VL: QIVLSQSPAILSASPGEKVTMTCRASSSVSYIHWFQQKPGSSPKPWIYATSNLASGVPVRFSGSGSGTSYSLTISRVEAEDAATYYCQQWTSNPPTFGGGTKLEIKV | binds |
